Legend:
[1] = target: T1, PD1-hFc (UniProt Q15116 25-167); assay: ELISA on coated PD1-hFc; scFv-Fc expressed in FreeStyle 293 cells
T1 construct: ELISA coat at 1 ug/ml; not shown: hFc (human Fc)

[2] = target: T1, PD1-hFc; assay: ELISA on PD-1; protein purified from supernatant of 293T cells transfected with the CAR plasmid
Description: To evaluate the expression of the present CAR construct, the plasmid encoding the CAR molecule was transfected into 293T cells. The protein was harvested from the supernatant of the cultured cells, followed by purifying and quantifying via measuring OD260/280. On the other hand, the binding affinity of the purified protein towards PD-1 was determined by ELISA.

[3] = target: T1, PD1-hFc; assay: ELISA on coated PD1-hFc, anti-human kappa HRP, one site-specific binding fit
Description: ELISA plates were coated with PD1-hFc (1 ug/ml) and blocked with blocking buffer (5% milk dissolved in PBS). The antibodies from 66.67 nM to […] dilute (4× fold dilution) were then added to the plates. The binding affinity of tested antibody to PD1-hFc was determined via adding goat anti-human KAPPA HRP IgG (1:3,000 dilution), and binding curve and KD were determined by software using one site-specific binding for nonlinear fit methods.

[4] = target: human PD-1 on PD-1 Effector Cells (Jurkat T cells) (human, UniProt Q15116 25-288); assay: cell-based or functional assay
human PD-1 on PD-1 Effector Cells (Jurkat T cells), sequence (Q15116 25-288): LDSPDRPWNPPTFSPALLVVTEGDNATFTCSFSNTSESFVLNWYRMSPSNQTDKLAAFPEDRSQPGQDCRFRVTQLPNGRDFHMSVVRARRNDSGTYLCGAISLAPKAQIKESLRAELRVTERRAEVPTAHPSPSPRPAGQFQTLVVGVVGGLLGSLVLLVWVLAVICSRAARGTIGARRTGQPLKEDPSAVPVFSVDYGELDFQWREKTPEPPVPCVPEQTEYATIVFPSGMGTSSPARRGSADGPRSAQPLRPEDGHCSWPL

[5] = target: T2, recombinant PD-1 protein (UniProt Q15116 25-167, limits assumed); assay: ELISA, recombinant PD-1 coated at 0.1 ug/well, serially diluted antibody
T2 construct: It may or may not be the same reagent as PD1-hFc
T2 sequence (Q15116 25-167 limits assumed): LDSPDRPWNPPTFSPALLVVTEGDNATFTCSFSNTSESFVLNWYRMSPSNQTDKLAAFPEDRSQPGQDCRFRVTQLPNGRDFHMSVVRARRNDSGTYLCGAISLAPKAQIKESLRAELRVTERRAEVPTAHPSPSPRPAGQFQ
Description: Antibodies of the invention were evaluated for specific binding to PD-1 using an enzyme-linked immunosorbent assay (ELISA). Briefly, recombinant PD-1 protein was immobilized on a 96-well ELISA plate at 0.1 μg/well. The chimeric anti-human PD-1 2B6 antibody was serially diluted and incubated with the coated PD-1, followed by detection with a horseradish peroxidase (HRP)-conjugated goat anti-mouse IgG secondary antibody. The binding was visualized using 3,3′,5,5′-tetramethylbenzidine (TMB) as a substrate, and the optical density (OD) was measured at 405 nm to assess the binding activity.

T1 sequence (Q15116 25-167): as the sequence (Q15116 25-167 limits assumed) above

Binder | Kd [3] [nM] | other results
recombinant humanized 2B6 HuB1-scFv-Fc (Fc fusion, Both carry the same printed name and are kept as one molecule; also called 286 HuB1-scFv-Fc; PD-1^2B6 scFv-Fc; not shown: lim) scFv: EVQLVESGGGLVQPGGSLRLSCAASGFTFSSYTMSWVRQAPGKGLEWVATISGGGANIYYPDSVKGRFTISRDNSKNTLYLQMNSLRAEDTAVYYCVSPYYAIDFWGQGTLVTVSSGGGGSGGGGSGGGGSDIQMTQSPSSLSASVGDRVTITCKASQDVGSAVAWYQQKPGKAPKLLIYWASTRHTGVPSRFSGSGSGTDFTLTISSLQPEDFATYYCQQYSTYTWTFGQGTKVEIK | – | Kd [1]: 2.58 nM; Kd [2]: 1.75 nM
humanized antibody 2B6 HdB1 Hd (antibody, V domains shown, Heavy chain HdB1 with light chain Hd) VH: EVQLVESGGGLVQPGGSLRLSCKASGFTFSSYTMSWVRQAPGKGLEWVATISGGGANIYYPDSVKGRFTISRDNSKNTLYLQMNSLRAEDTAVYYCVSPYYAIDFWGQGTLVTVSS VL: DIQMTQSPSSLSASVGDRVTITCKASQDVGSAVAWYQQKPGKAPKLLIYWASTRHTGVPSRFSGSGSGTDFTLTISSLQPEDFATYYCQQYSTYTWTFGQGTKVEIK | 0.368 | –
humanized 2B6 4D5 (2B6-HdHd) (antibody, V domains shown, Heavy chain Hd with light chain Hd) VH: EVQLVESGGGLVQPGGSLRLSCKASGFTFSSYTMSWVRQAPGKGLEWVATISGGGANIYYPDSVKGRFTISRDDSKNTLYLQMNSLRAEDTAVYYCARPYYAIDFWGQGTLVTVSS VL: DIQMTQSPSSLSASVGDRVTITCKASQDVGSAVAWYQQKPGKAPKLLIYWASTRHTGVPSRFSGSGSGTDFTLTISSLQPEDFATYYCQQYSTYTWTFGQGTKVEIK | 179 | –
humanized antibody 2B6 HuB1 Hd (antibody, V domains shown, Heavy chain HuB1 with light chain Hd) VH: EVQLVESGGGLVQPGGSLRLSCAASGFTFSSYTMSWVRQAPGKGLEWVATISGGGANIYYPDSVKGRFTISRDNSKNTLYLQMNSLRAEDTAVYYCVSPYYAIDFWGQGTLVTVSS VL: DIQMTQSPSSLSASVGDRVTITCKASQDVGSAVAWYQQKPGKAPKLLIYWASTRHTGVPSRFSGSGSGTDFTLTISSLQPEDFATYYCQQYSTYTWTFGQGTKVEIK | 0.403 | –
chimeric anti-human PD-1 2B6 antibody (antibody, V domains shown, also called mAb 2B6; M-M) VH: EVKLVESGGGLVKPGGSLKLSCAAAGFTFSSYTMSWVRQTPAKRLEWVATISGGGANIYYPDSVKGRFTISRDNARNTLYLQMSSLRSEDTAMYYCVSPYYAIDFWGQGTSVTVSS VL: DTVMTQSDKFMSTSVGDRVSITCKASQDVGSAVAWYQQKPGQSPKLLIYWASTRHTGVPDRFTGSGSGTDFTLTISNVQSEDLADYFCQQYSTYTWTFGGGTKLEIK | 0.495 | NFAT-RE-mediated luminescence (PD-1/PD-L1 Blockade Bioassay), EC50 [4]: 3.88 nM; Kd [5]: 0.809 nM

Source: patent US20250381225A1 (DEVELOPMENT CENTER FOR BIOTECHNOLOGY, published 2025)
